Paper PMC7952604, “Structural insights into phosphatidylethanolamine formation in bacterial membrane biogenesis” (Scientific Reports, 2021)
Square brackets hold non-standard residues; d marks the D form. Ends that are not written are not given here. * marks the point of attachment. Pyruvoyl = CC(=O)C(=O)*

B1: E. coli phosphatidylserine decarboxylase (PSD) α-subunit, from PSD_(1–287), apo (domain or fragment, Escherichia coli, UniProt P0A8K1 254-287, looked up)
chain: [Pyruvoyl]TVINLFAPGKVNLVEQLESLSVTKIGQPLAVST
notes: No removal of the His6 tag is described; also called α-chain; alpha chain; source: E. coli BL21(DE3), DDM-solubilised, purified (HisTrap, SEC) as auto-cleaved PSD_(1–287)
B2: E. coli phosphatidylserine decarboxylase (PSD) β-subunit, from PSD_(1–287) (domain or fragment, Escherichia coli, UniProt P0A8K1 1-253, looked up)
chain: MLNSFKLSLQYILPKLWLTRLAGWGASKRAGWLTKLVIDLFVKYYKVDMKEAQKPDTASYRTFNEFFVRPLRDEVRPIDTDPNVLVMPADGVISQLGKIEEDKILQAKGHNYSLEALLAGNYLMADLFRNGTFVTTYLSPRDYHRVHMPCNGILREMIYVPGDLFSVNHLTAQNVPNLFARNERVICLFDTEFGPMAQILVGATIVGSIETVWAGTITPPREGIIKRWTWPAGENDGSVALLKGQEMGRFKLG
notes: Made as one proenzyme chain (residues 1-287 with a C-terminal His6 tag) that cuts itself; the β-chain is the N-terminal product; also called β-chain; beta chain; source: E. coli BL21(DE3), DDM-solubilised, purified (HisTrap, SEC) as auto-cleaved PSD_(1–287)
B3: E. coli PSD_(1–287) αβ-heterodimer, apo (complex, Escherichia coli)
chain 1: B2 chain
chain 2: STVINLFAPGKVNLVEQLESLSVTKIGQPLAVST
modifications: pyruvoyl residue (Pvl-254) at the N-terminus, formed from Ser-254 on auto-cleavage
notes: β-chain of E. coli phosphatidylserine decarboxylase, residues 1-253; α-chain of E. coli phosphatidylserine decarboxylase, residues 254-287; The unit that pairs with itself into the (αβ)2 heterotetramer; also called Apo-PSD1; Apo-PSD2; source: E. coli BL21(DE3), DDM-solubilised, purified (HisTrap, SEC)
B4: 8PE-PSD: αβ-heterodimer of E. coli PSD_(1–287) with 8:0/8:0 PE linked to Pvl-254 (complex, Escherichia coli)
chain 1: B2 chain
chain 2: B3 chain 2
modifications: 8:0/8:0 PE covalently linked to the pyruvoyl residue Pvl-254 (reduced Schiff base)
notes: β-chain of E. coli phosphatidylserine decarboxylase, residues 1-253; α-chain of E. coli phosphatidylserine decarboxylase, residues 254-287; source: E. coli BL21(DE3), purified PSD_(1–287), conjugated with 8PE by NaCNBH3-dependent reduction of the Schiff base
B5: 10PE-PSD: αβ-heterodimer of E. coli PSD_(1–287) with 10:0/10:0 PE linked to Pvl-254 (complex, Escherichia coli)
chain 1: B2 chain
chain 2: B3 chain 2
modifications: 10:0/10:0 PE covalently linked to the pyruvoyl residue Pvl-254 (reduced Schiff base)
notes: β-chain of E. coli phosphatidylserine decarboxylase, residues 1-253; α-chain of E. coli phosphatidylserine decarboxylase, residues 254-287
B6: E. coli PSD α-subunit, from PSD_(1–287), conjugated with 8:0/8:0 PE (domain or fragment, Escherichia coli, UniProt P0A8K1 254-287, looked up)
chain: [Pyruvoyl]TVINLFAPGKVNLVEQLESLSVTKIGQPLAVST
modifications: not fully specified (residue 1); also: 8:0/8:0 PE linked to Pvl-254 by reduced Schiff base
notes: α-chain of E. coli phosphatidylserine decarboxylase, residues 254-287 of the construct PSD_(1–287); also called 8PE-conjugated α-chain; source: E. coli BL21(DE3), purified PSD_(1–287), conjugated with 8PE by NaCNBH3-dependent reduction of the Schiff base
B7: E. coli PSD α-subunit, from PSD_(1–287), conjugated with 10:0/10:0 PE (domain or fragment, Escherichia coli, UniProt P0A8K1 254-287, looked up)
chain: [Pyruvoyl]TVINLFAPGKVNLVEQLESLSVTKIGQPLAVST
modifications: not fully specified (residue 1); also: 10:0/10:0 PE linked to Pvl-254 by reduced Schiff base
notes: α-chain of E. coli phosphatidylserine decarboxylase, residues 254-287 of the construct PSD_(1–287); also called 10PE-conjugated α-chain

Columns and labels:
[1] = target: T1, PSD1–287 (Escherichia coli, UniProt P0A8K1); experiment: X-ray structure ([…] Å); NaCNBH3 reduction, MALDI-TOF; format: binding; conditions: 1 mM lipid, 50 mM NaCNBH3, 37 °C, 14 h, pH 7.5; covalent; reduced Schiff base to Pvl-254
T1 construct: gene psd

[2] = target: T2, PSD1–322 (Escherichia coli, UniProt P0A8K1, H144A); experiment: Schiff base reduction with NaCNBH3, MALDI-TOF; format: binding; conditions: 1 mM lipid, 50 mM NaCNBH3, 37 °C, 15 h; covalent; active site Pvl-254
T2 construct: gene psd; full length (1-322), C-terminal His6 tag, auto-cleaved 253/254 with Ser254 turned to pyruvoyl, expressed in E. coli BL21(DE3), solubilised in DDM

[3] = target: T3, PSD1–322 (Escherichia coli, UniProt P0A8K1, H144N); experiment: Schiff base reduction with NaCNBH3, MALDI-TOF; format: binding; conditions: 1 mM lipid, 50 mM NaCNBH3, 37 °C, 15 h; covalent; active site Pvl-254
T3 construct: gene psd; full length (1-322), C-terminal His6 tag, auto-cleaved 253/254 with Ser254 turned to pyruvoyl, expressed in E. coli BL21(DE3), solubilised in DDM

[4] = target: T1, PSD1–287; experiment: Schiff base reduction with NaCNBH3, MALDI-TOF; format: binding; conditions: 1 mM lipid, 50 mM NaCNBH3, 37 °C, 14 h, pH 7.5, covalent, decarboxylated
[5] = target: B2; experiment: crystal structure; apo PSD_(1–287) in DDM; sitting drop vapor diffusion at 20 °C; two crystal forms, Apo-PSD1 (1.90 Å) and Apo-PSD2 (2.63 Å); conditions: both partners purified
[6] = target: the molecule itself; experiment: as above
[7] = target: the molecule itself; experiment: crystal structure; PE-conjugated PSD_(1–287) in DDM; sitting drop vapor diffusion at 20 °C; 8PE-PSD (2.12 Å) and 10PE-PSD (2.70 Å)
[8] = target: B2; experiment: as above; conditions: both partners purified

T2 sequence (P0A8K1 254-322): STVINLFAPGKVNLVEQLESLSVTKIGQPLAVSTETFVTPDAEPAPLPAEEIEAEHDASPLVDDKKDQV
T2 sequence (P0A8K1 1-253 H144A): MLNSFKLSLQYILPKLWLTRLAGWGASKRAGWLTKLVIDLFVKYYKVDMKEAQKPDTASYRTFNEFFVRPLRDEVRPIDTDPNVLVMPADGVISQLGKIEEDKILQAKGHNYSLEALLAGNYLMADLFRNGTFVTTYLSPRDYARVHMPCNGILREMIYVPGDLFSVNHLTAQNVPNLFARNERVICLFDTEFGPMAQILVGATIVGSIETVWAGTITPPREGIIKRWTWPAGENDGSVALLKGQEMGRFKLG
T3 sequence (P0A8K1 1-253 H144N): as the sequence (P0A8K1 1-253 H144A) above, with A144N counted along it
T3 sequence (P0A8K1 254-322): as the sequence (P0A8K1 254-322) above

CCCCCCCC(=O)OC[C@H](COP(=O)(O)OCCN)OC(=O)CCCCCCC [8PE, 8:0/8:0 PE]
% conjugation [1]: 98% | Schiff base reduction with NaCNBH3, MALDI-TOF [2]: these proteins were able to form an adduct with 8PE, albeit at a reduced efficiency | Schiff base reduction with NaCNBH3, MALDI-TOF [3]: these proteins were able to form an adduct with 8PE, albeit at a reduced efficiency

CCCCCCCCCC(=O)OC[C@H](COP(=O)(O)OC[C@H](N)C(=O)O)OC(=O)CCCCCCCCC [10PS, 10:0/10:0 PS]
% conjugation ([4]; trapped as 10PE adduct of Pvl-254): 97%

CCCCCCCCCCCCCC(=O)OC[C@H](COP(=O)(O)OC[C@H](N)C(=O)O)OC(=O)CCCCCCCCCCCCC [14PS, 14:0/14:0 PS]
% conjugation ([4]; trapped as 14PE adduct of Pvl-254): 94%

B1
binding result [5]: binds

B2
binding result [6]: binds

B3
stoichiometry N [6]: 2 αβ-heterodimers

B4
stoichiometry N [7]: 2 αβ-heterodimers

B5
stoichiometry N [7]: 2 αβ-heterodimers

B6
binding result [8]: binds

B7
binding result [8]: binds
